To fix the notation:
B1: target 3 complement block 3-7 (mixed)
RNA 1: CACCCGUGCAAAAUUGCAGGGGUCUAAAACGACCUGAAUAUUUCAGAUCAAA
RNA 2: GGGAAUGGAUCCACAUCUACGAAUUCGUUUUUGAUCUGAAAUAUAGUCCUCUGCAGAUCGGAAGAGCACACGU
B2: target 1 U11A,G17A (mixed)
RNA 1: CACCCGUGCAAAAAUGCAGGGGUCUAAAACUGAGCGGAUAACCUCUCUAUGG
RNA 2: GGGAAUGGAUCCACAUCUACGAAUUCGUACCAUAAAGAGGAUAUCCGCUCACCGAGAUCGGAAGAGCACACGU
B3: target 1 insU 3' of 12,insG 3' of 7 (mixed)
RNA 1: CACCCGUGCAAAAAUGCAGGGGUCUAAAACUGAGCGGAUAACCUCUCUAUGG
RNA 2: GGGAAUGGAUCCACAUCUACGAAUUCGUACCAUAGAGAGGUUUAUCGCGCUCACCGAGAUCGGAAGAGCACACGU
B4: target 1 U11C,G12C (mixed)
RNA 1: CACCCGUGCAAAAAUGCAGGGGUCUAAAACUGAGCGGAUAACCUCUCUAUGG
RNA 2: GGGAAUGGAUCCACAUCUACGAAUUCGUACCAUAGAGAGCCUAUCCGCUCACCGAGAUCGGAAGAGCACACGU
B5: target 1 A9G,C22G (mixed)
RNA 1: CACCCGUGCAAAAAUGCAGGGGUCUAAAACUGAGCGGAUAACCUCUCUAUGG
RNA 2: GGGAAUGGAUCCACAUCUACGAAUUCGUAGCAUAGAGAGGUUGUCCGCUCACCGAGAUCGGAAGAGCACACGU
B6: target 1 insG 3' of 19,insA 3' of 13 (mixed)
RNA 1: CACCCGUGCAAAAAUGCAGGGGUCUAAAACUGAGCGGAUAACCUCUCUAUGG
RNA 2: GGGAAUGGAUCCACAUCUACGAAUUCGUACCAUGAGAGAGAGUUAUCCGCUCACCGAGAUCGGAAGAGCACACGU
B7: target 1 insG 3' of 20,insG 3' of 20 (mixed)
RNA 1: CACCCGUGCAAAAAUGCAGGGGUCUAAAACUGAGCGGAUAACCUCUCUAUGG
RNA 2: GGGAAUGGAUCCACAUCUACGAAUUCGUACCAGGUAGAGAGGUUAUCCGCUCACCGAGAUCGGAAGAGCACACGU
B8: target 1 insG 3' of 21,insG 3' of 9 (mixed)
RNA 1: CACCCGUGCAAAAAUGCAGGGGUCUAAAACUGAGCGGAUAACCUCUCUAUGG
RNA 2: GGGAAUGGAUCCACAUCUACGAAUUCGUACCGAUAGAGAGGUUAGUCCGCUCACCGAGAUCGGAAGAGCACACGU
B9: target 1 insG 3' of 3,insC 3' of 3 (mixed)
RNA 1: CACCCGUGCAAAAAUGCAGGGGUCUAAAACUGAGCGGAUAACCUCUCUAUGG
RNA 2: GGGAAUGGAUCCACAUCUACGAAUUCGUACCAUAGAGAGGUUAUCCGCUGCCACCGAGAUCGGAAGAGCACACGU
B10: target 1 G12C,G13A (mixed)
RNA 1: CACCCGUGCAAAAAUGCAGGGGUCUAAAACUGAGCGGAUAACCUCUCUAUGG
RNA 2: GGGAAUGGAUCCACAUCUACGAAUUCGUACCAUAGAGAACUUAUCCGCUCACCGAGAUCGGAAGAGCACACGU
B11: target 1 complement block 1-5 (mixed)
RNA 1: CACCCGUGCAAAAAUGCAGGGGUCUAAAACUGAGCGGAUAACCUCUCUAUGG
RNA 2: GGGAAUGGAUCCACAUCUACGAAUUCGUACCAUAGAGAGGUUAUCCCGAGUCCGAGAUCGGAAGAGCACACGU
B12: target 1 insC 3' of 9,insC 3' of 8 (mixed)
RNA 1: CACCCGUGCAAAAAUGCAGGGGUCUAAAACUGAGCGGAUAACCUCUCUAUGG
RNA 2: GGGAAUGGAUCCACAUCUACGAAUUCGUACCAUAGAGAGGUUACUCCCGCUCACCGAGAUCGGAAGAGCACACGU
B13: target 1 U10A,G17A (mixed)
RNA 1: CACCCGUGCAAAAAUGCAGGGGUCUAAAACUGAGCGGAUAACCUCUCUAUGG
RNA 2: GGGAAUGGAUCCACAUCUACGAAUUCGUACCAUAAAGAGGUAAUCCGCUCACCGAGAUCGGAAGAGCACACGU
B14: target 1 C6G,G13U (mixed)
RNA 1: CACCCGUGCAAAAAUGCAGGGGUCUAAAACUGAGCGGAUAACCUCUCUAUGG
RNA 2: GGGAAUGGAUCCACAUCUACGAAUUCGUACCAUAGAGAUGUUAUCGGCUCACCGAGAUCGGAAGAGCACACGU
B15: target 1 insU 3' of 15 (mixed)
RNA 1: CACCCGUGCAAAAAUGCAGGGGUCUAAAACUGAGCGGAUAACCUCUCUAUGG
RNA 2: GGGAAUGGAUCCACAUCUACGAAUUCGUACCAUAGAGUAGGUUAUCCGCUCACCGAGAUCGGAAGAGCACACGU
B16: target 1 insC 3' of 9,insG 3' of 4 (mixed)
RNA 1: CACCCGUGCAAAAAUGCAGGGGUCUAAAACUGAGCGGAUAACCUCUCUAUGG
RNA 2: GGGAAUGGAUCCACAUCUACGAAUUCGUACCAUAGAGAGGUUACUCCGCGUCACCGAGAUCGGAAGAGCACACGU
B17: target 1 insG 3' of 10,insU 3' of 5 (mixed)
RNA 1: CACCCGUGCAAAAAUGCAGGGGUCUAAAACUGAGCGGAUAACCUCUCUAUGG
RNA 2: GGGAAUGGAUCCACAUCUACGAAUUCGUACCAUAGAGAGGUUGAUCCGUCUCACCGAGAUCGGAAGAGCACACGU
B18: target 1 insU 3' of 21,insG 3' of 19 (mixed)
RNA 1: CACCCGUGCAAAAAUGCAGGGGUCUAAAACUGAGCGGAUAACCUCUCUAUGG
RNA 2: GGGAAUGGAUCCACAUCUACGAAUUCGUACCUAUGAGAGAGGUUAUCCGCUCACCGAGAUCGGAAGAGCACACGU
B19: target 1 G13C (mixed)
RNA 1: CACCCGUGCAAAAAUGCAGGGGUCUAAAACUGAGCGGAUAACCUCUCUAUGG
RNA 2: GGGAAUGGAUCCACAUCUACGAAUUCGUACCAUAGAGACGUUAUCCGCUCACCGAGAUCGGAAGAGCACACGU
B20: target 1 insU 3' of 17,insA 3' of 4 (mixed)
RNA 1: CACCCGUGCAAAAAUGCAGGGGUCUAAAACUGAGCGGAUAACCUCUCUAUGG
RNA 2: GGGAAUGGAUCCACAUCUACGAAUUCGUACCAUAGUAGAGGUUAUCCGCAUCACCGAGAUCGGAAGAGCACACGU
B21: target 1 G12A,U19C (mixed)
RNA 1: CACCCGUGCAAAAAUGCAGGGGUCUAAAACUGAGCGGAUAACCUCUCUAUGG
RNA 2: GGGAAUGGAUCCACAUCUACGAAUUCGUACCACAGAGAGAUUAUCCGCUCACCGAGAUCGGAAGAGCACACGU
B22: target 1 C7A,C22U (mixed)
RNA 1: CACCCGUGCAAAAAUGCAGGGGUCUAAAACUGAGCGGAUAACCUCUCUAUGG
RNA 2: GGGAAUGGAUCCACAUCUACGAAUUCGUAUCAUAGAGAGGUUAUACGCUCACCGAGAUCGGAAGAGCACACGU
B23: target 1 U19C,A20C (mixed)
RNA 1: CACCCGUGCAAAAAUGCAGGGGUCUAAAACUGAGCGGAUAACCUCUCUAUGG
RNA 2: GGGAAUGGAUCCACAUCUACGAAUUCGUACCCCAGAGAGGUUAUCCGCUCACCGAGAUCGGAAGAGCACACGU
B24: target 1 insU 3' of 21,insG 3' of 2 (mixed)
RNA 1: CACCCGUGCAAAAAUGCAGGGGUCUAAAACUGAGCGGAUAACCUCUCUAUGG
RNA 2: GGGAAUGGAUCCACAUCUACGAAUUCGUACCUAUAGAGAGGUUAUCCGCUCGACCGAGAUCGGAAGAGCACACGU
B25: target 1 C2G,U8C (mixed)
RNA 1: CACCCGUGCAAAAAUGCAGGGGUCUAAAACUGAGCGGAUAACCUCUCUAUGG
RNA 2: GGGAAUGGAUCCACAUCUACGAAUUCGUACCAUAGAGAGGUUACCCGCUGACCGAGAUCGGAAGAGCACACGU
B26: target 1 insU 3' of 18,insG 3' of 3 (mixed)
RNA 1: CACCCGUGCAAAAAUGCAGGGGUCUAAAACUGAGCGGAUAACCUCUCUAUGG
RNA 2: GGGAAUGGAUCCACAUCUACGAAUUCGUACCAUAUGAGAGGUUAUCCGCUGCACCGAGAUCGGAAGAGCACACGU
B27: target 1 A9G,G12U (mixed)
RNA 1: CACCCGUGCAAAAAUGCAGGGGUCUAAAACUGAGCGGAUAACCUCUCUAUGG
RNA 2: GGGAAUGGAUCCACAUCUACGAAUUCGUACCAUAGAGAGUUUGUCCGCUCACCGAGAUCGGAAGAGCACACGU

The series has as its target T1, EsCas13d, nuclease-dead (Eubacterium siraeum, UniProt B0MS50, R295A;H300A;R849A;H854A).
T1 sequence: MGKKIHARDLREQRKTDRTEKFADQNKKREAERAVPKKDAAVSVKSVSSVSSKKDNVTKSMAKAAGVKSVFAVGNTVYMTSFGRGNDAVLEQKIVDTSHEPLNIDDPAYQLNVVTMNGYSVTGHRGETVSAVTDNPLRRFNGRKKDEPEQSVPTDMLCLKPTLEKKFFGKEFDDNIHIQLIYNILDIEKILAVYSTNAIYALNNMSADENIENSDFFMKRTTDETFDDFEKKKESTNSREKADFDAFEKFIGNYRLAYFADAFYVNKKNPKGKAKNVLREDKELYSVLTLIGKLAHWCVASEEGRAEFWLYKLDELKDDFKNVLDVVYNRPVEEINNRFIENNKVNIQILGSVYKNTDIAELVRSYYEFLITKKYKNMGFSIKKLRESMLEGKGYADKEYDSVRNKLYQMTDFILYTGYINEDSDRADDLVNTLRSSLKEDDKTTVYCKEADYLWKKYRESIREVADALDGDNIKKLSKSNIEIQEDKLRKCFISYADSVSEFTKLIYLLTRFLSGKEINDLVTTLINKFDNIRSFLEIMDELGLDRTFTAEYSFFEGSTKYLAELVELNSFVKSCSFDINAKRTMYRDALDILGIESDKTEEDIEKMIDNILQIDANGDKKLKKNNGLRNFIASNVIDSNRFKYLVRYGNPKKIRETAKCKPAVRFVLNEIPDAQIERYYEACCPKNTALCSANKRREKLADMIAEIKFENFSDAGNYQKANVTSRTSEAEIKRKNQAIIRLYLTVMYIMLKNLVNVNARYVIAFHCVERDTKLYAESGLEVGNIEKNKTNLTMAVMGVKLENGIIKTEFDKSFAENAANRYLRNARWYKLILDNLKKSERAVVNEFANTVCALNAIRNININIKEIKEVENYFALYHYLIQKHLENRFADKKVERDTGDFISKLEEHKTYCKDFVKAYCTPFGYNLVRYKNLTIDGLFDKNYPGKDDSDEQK
As to the kind of experiment: crRNA (strand 1, pre-loaded); Mg2+; 40 mM Tris-HCl pH 7.5, 150 mM NaCl, 6 mM MgCl2, 1 mM DTT, 0.1% Tween-20, 0.2 mg/ml BSA; 25 C; 10 min per concentration, then washed. The note with it: tags: His6-TwinStrep-SUMO cleaved; N-terminal SNAP kept (SNAP-Surface 488); label: 3' end held by stalled T7 RNA polymerase.
Regarding B1, the Kd (as a rule, the free concentration of one partner at which half of the binding sites on the other are occupied at equilibrium, for simple one-to-one binding) came to 74 ± 11 nM.

B2 registered a Kd of 91 ± 13 nM.

B3: the affinity, expressed as Kd, was 6.8 ± 0.4 nM.

The molecule B4 had a Kd of 17.1 ± 2.1 nM.

In the case of B5, the Kd is 58 ± 18 nM.

Regarding B6, the Kd stood at 47 ± 10 nM.

On to B7, for which binding was characterised by a dissociation constant (Kd) of 60 ± 20 nM.

In turn, B8 registered a Kd of 70 ± 17 nM.

The molecule B9 had a Kd of 11.4 ± 0.4 nM.

Take B10: the Kd worked out at 9.5 ± 0.5 nM.

The molecule B11 returned a Kd of 14.3 ± 0.6 nM.

Consider B12, for which the Kd turned out to be 19.9 ± 1.4 nM. The Kd values of the last two molecules are within 1.5-fold of each other.

Molecule B13 had a Kd of 55 ± 5 nM.

B14 displayed a Kd of 37 ± 5 nM.

Regarding B15, the affinity, expressed as Kd, was 8.7 ± 0.6 nM. Compared with the last molecule, the Kd is about 4.3-fold lower.

The molecule B16 gave a Kd of 7.02 ± 0.26 nM.

B17 displayed a Kd of 43 ± 11 nM.

Molecule B18 gave a Kd of 73 ± 9 nM. This Kd lies about 1.7-fold higher than the previous one.

B19 displayed a Kd of 62 ± 16 nM.

In turn, B20 returned a Kd of 15.3 ± 1.4 nM.

B21 gave a Kd of 22 ± 3 nM. The Kd values of the last two molecules are within 1.5-fold of each other.

Consider B22, for which the Kd came to 13.8 ± 1.1 nM.

Turning to B23, the Kd was found to be 94 ± 29 nM. This Kd is about 6.8-fold higher than that of the molecule before.

In turn, B24 gave a Kd of 26 ± 5 nM.

Regarding B25, the Kd came to 7.9 ± 0.4 nM.

With B26, the Kd came out at 17.7 ± 0.6 nM.

With B27, binding was put at a Kd of 12.5 ± 0.6 nM.

The record behind these values is publication PMC10786891, “Massively parallel profiling of RNA-targeting CRISPR-Cas13d”.
